B1: FLAGhis-tagged DDF-VZV1 human Fab expressed using pDLac-VZV1-FLAGhis (Fab)
heavy: LESGPGLVKPSETLSLTCSVSGGSITTKDFSWAWIRQPPGKGLEWIGSIYYSGTTHYSPSLKSRVIMSVDTSDNKFSLSLTSVTAADTAVYYCARQLGRSPGIYSFWRDHRTSAFDFWGQGTLATVSAASTKGPSVFPLAPSSKSTSGGTAALGCLVKDYFPEPVTVSWNSGALTSGVHTFPAVLQSSGLYSLSSVVTVPSSSLGTQTYICNVNHKPSNTKVDKKVEPKSCDKTSDYKDDDDKHHHHHH
light: ELTQSPSSLSASVGDRVTITCRATQSISSYLSWYQQKPGQAPKLLIYGASNLQSGVPSRFSGSGSGTDFTLTINSLQPEDFATYYCQQTLSTPFTFGPGTRVDFKRTVAAPSVFIFPPSDEQLKSGTASVVCLLNNFYPREAKVQWKVDNALQSGNSQESVTEQDSKDSTYSLSSTLTLSKADYEKHKVYACEVTHQGLSSPVTKSFNRGEC
B2: FLAGhis-tagged DDF-VZV2 human Fab expressed using pDLac-VZV2-FLAGhis (Fab)
heavy: LESGGGLVQPGGSLRLSCEASGFTFSSYTMNWVRQAPGKGLEWVSWISSSGSDIYYAESVKGRFTISRDNAKNSLYLQMNSLRDEDTALYYCARDGIDSSSSWGGEPYFYTMDFWGQGTTVIVSSASTKGPSVFPLAPSSKSTSGGTAALGCLVKDYFPEPVTVSWNSGALTSGVHTFPAVLQSSGLYSLSSVVTVPSSSLGTQTYICNVNHKPSNTKVDKKVEPKSCDKTSDYKDDDDKHHHHHH
light: not shown

Biological target: Varicella Zoster Virus (VZV) antigens (lysate of VZV-infected MRC-5 cells, VZV-infected MRC-5 cells, cell-free VZV; ELLEN strain) (Varicella Zoster Virus (ELLEN strain, ATCC VR-586))
Test: cell-based or functional assay

| Binder | VZV-neutralizing activity, IC50 (plaque reduction) |
| --- | --- |
| B1 | 2 µg/mL |
| B2 | 2 µg/mL |
